Consider two molecules from US20060063149A1 (BIOKIT S A, published 2006).

The target in test [1] is T1, Tp17-HIS monomers (Treponema pallidum, UniProt P29722 23-156).
T1 construct: also called monomeric Tp17-His; not shown: HIS tag from the pET24a vector
T1 sequence: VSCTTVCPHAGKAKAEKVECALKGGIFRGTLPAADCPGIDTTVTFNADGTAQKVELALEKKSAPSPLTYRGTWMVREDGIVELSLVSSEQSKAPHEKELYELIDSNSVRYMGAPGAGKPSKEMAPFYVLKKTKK
As to the kind of experiment: size-exclusion chromatography of complexes formed in vitro. For orientation: SEC sorts molecules by how far they enter the pores of the column.

The target in test [2] is T2, Tp17-HIS dimers (Treponema pallidum, UniProt P29722 23-156).
T2 construct: also called dimeric Tp17-His; not shown: HIS tag from the pET24a vector
T2 sequence: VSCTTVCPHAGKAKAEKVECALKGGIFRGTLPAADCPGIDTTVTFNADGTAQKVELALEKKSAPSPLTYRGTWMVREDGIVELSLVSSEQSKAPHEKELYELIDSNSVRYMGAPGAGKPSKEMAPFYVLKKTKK
The test is described as above.

Test [3] addresses T3, GST-Tp47 fusion protein (Treponema pallidum, UniProt P29723 20-434).
T3 construct: Control protein that shares the GST moiety with GST-Tp17; also called control GST-Tp47 antigen; not shown: GST moiety
T3 sequence: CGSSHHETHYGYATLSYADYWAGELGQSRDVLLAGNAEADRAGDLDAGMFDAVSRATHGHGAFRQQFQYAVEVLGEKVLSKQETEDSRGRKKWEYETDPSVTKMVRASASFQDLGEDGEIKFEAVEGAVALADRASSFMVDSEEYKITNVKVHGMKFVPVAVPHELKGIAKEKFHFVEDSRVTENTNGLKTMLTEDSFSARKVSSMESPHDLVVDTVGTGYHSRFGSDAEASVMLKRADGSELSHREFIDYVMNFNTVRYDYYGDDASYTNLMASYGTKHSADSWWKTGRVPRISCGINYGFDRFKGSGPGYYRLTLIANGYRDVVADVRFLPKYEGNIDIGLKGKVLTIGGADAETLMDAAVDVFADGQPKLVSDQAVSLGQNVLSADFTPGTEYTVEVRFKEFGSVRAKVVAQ
As to the kind of experiment: Far Western blot, lysozyme on PVDF membrane.

B1: recombinant human lysozyme (Ventria Bioscience) (enzyme)
chain: KVFERCELARTLKRLGMDGYRGISLANWMCLAKWESGYNTRATNYNAGDRSTDYGIFQINSRYWCNDGKTPGAVNACHLSCSALLQDNIADAVACAKRVVRDPQGIRAWVAWRNRCQNRDVRQYVQGCGV
notes: Bought product (159-53LZ-90P); also called huLYS; LyzR
On to B1, for which the binding result in test [1] and in test [2] was “binds” each time.

B2: human breast milk lysozyme (enzyme)
chain: KVFERCELARTLKRLGMDGYRGISLANWMCLAKWESGYNTRATNYNAGDRSTDYGIFQINSRYWCNDGKTPGAVNACHLSCSALLQDNIADAVACAKRVVRDPQGIRAWVAWRNRCQNRDVRQYVQGCGV
notes: also called human lysozyme; huLYS
Take B2: the binding result in test [3] is listed as “no binding”.
